This note sets out measurements from patent US7803572B2, “Protease detection assay” (Atlas Genetics, Ltd., priority 2003, dated 2010).

The target of data set [1] is T1, porcine pancreas trypsin (Sus scrofa, UniProt P00761).
T1 construct: purchased Sigma; host or cells: porcine pancreas
Briefly: Digestion of labelled protein with trypsin, differential pulse voltammetry. The class given is biochemical. As to the method:
(§1) Protease assays were performed as follows unless stated otherwise. […] Samples were incubated at 37° C. for 1 hour.
A digestion of Fc-BSA with trypsin was carried out as described above. […] The positive reaction has a peak position of 435 mV and a peak height of 4.58×10^−7 A; the no trypsin control reaction has a peak position of 432 mV and a peak height of 2.55×10^−8 A.
A digestion of unlabelled BSA with trypsin was carried out in the same manner as for the labelled molecules as described above. The differential pulse voltammogram results are shown in FIG. 10 in which (a) is the trace for a no-trypsin control reaction and (b) is the trace for trypsin BSA reaction.
A digestion of FcU-BSA with trypsin was carried out as described above. […] The positive reaction has a peak position of 97 mV and a peak height of 5.01×10^−7 A; there was no peak in the no-trypsin control reaction. […]
Five digestions of Fc-BSA with trypsin were carried out using the protocol described above. As described in the general protocol, 2 μl of enzyme was used for each 200 μl reaction; for reaction (i) 10 mg/ml enzyme solution was used; reaction (ii): 1 mg/ml; reaction (iii) 0.1 mg/ml; reaction (iv) 0.01 mg/ml and reaction (v) was a no-trypsin control. The differential pulse voltammogram results are shown in FIG. 14 with baseline correction.
Five digestions of Fc-BSA with trypsin were carried out using the protocol described above. In reaction (i) the incubation at 37° was carried out for 60 minutes, in reaction (ii) for 15 minutes, in reaction (iii) for 5 minutes, in reaction (iv) for 2 minutes and reaction (v) was a 0 minutes no-trypsin control. The differential pulse voltammogram results are shown in FIG. 15 with baseline correction.

Data set [2] deals with porcine pancreas trypsin (1120 BAEE units/mg solid) (porcine) (UniProt P00761). Briefly: cell-based or functional assay.
Data set [3] addresses T2, papaya latex papain (Carica papaya, UniProt P00784).
T2 construct: purchased Sigma; host or cells: papaya latex
T2 sequence (P00784 134-345): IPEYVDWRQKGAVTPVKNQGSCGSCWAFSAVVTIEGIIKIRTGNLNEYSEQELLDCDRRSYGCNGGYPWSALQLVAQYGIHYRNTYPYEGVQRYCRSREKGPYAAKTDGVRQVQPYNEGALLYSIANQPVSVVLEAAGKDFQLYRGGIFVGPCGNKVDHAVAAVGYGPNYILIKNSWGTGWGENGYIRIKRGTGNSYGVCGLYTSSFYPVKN
Briefly: Digestion of FcU-BSA with papain, differential pulse voltammetry. The class given is biochemical. As to the method: as §1
A digestion of FcU-BSA with papain was carried out as described above.

Data set [4] concerns the target T3, trypsin (Sus scrofa, UniProt P00761).
T3 construct: purchased Sigma; host or cells: porcine pancreas
Description: Amperometric analysis of trypsin digestion. The class given is biochemical, porcine. Particulars: amperometric time course trace. As to the method: (§2) Four digestion reactions were carried out with real-time amperometric analysis. […] Tryspin was resuspended in HCl (1 mM, pH 3.0), papain and carboxypeptidase were resuspended in NaCl (100 mM). […] The amperometry conditions were as set out in Tables 2 and 3.
In FIG. 17, there is shown the amperometric time course trace for the trypsin digestion of Fc-BSA. […] As the movement of the species present in the solution reaches a steady state, the current response appears to decay.
(§3) In FIG. 18, there is shown the amperometric time course trace for the papain digestion of FcU-BSA. […] As the movement of the species present in the solution reaches a steady state, the current response appears to decay. […] The amperometric time course trace for the trypsin digestion of FcU-BSA is not illustrated in the drawings but was analogous.

For data set [5], the target named is T4, papain (Carica papaya, UniProt P00784).
T4 construct: purchased Sigma; host or cells: papaya latex
T4 sequence (P00784 134-345): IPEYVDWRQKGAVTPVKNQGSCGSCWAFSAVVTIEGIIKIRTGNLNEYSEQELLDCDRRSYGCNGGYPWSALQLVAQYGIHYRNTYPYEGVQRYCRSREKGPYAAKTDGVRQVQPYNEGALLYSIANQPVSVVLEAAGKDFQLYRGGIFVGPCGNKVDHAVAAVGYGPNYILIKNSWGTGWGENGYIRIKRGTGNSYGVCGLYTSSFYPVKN
Description: Amperometric analysis of papain digestion. The class given is biochemical. Particulars: amperometric time course trace, FIG. 18. As to the method: as §2, §3

Data set [6] addresses T1, porcine pancreas trypsin. Briefly: Effect of a protease inhibitor on electrochemical marker signal (trypsin digestion of Fc-BSA). The class given is biochemical. As to the method: as §1
Five digestions of Fc-BSA with trypsin were carried out using the protocol described above. In addition, soybean trypsin inhibitor was added to reaction mixtures […]. Solutions of the soybean trypsin inhibitor were prepared by resuspending inhibitor as supplied in deionised water to a concentration of 10 mg/ml and 1 mg/ml as appropriate. No inhibitor was added to reaction (i); 0.5 μl of 1 mg/ml inhibitor solution was added to reaction (ii); […] of 10 mg/ml inhibitor was added to reaction (iii); 5 μl of 10 mg/ml inhibitor solution was added to reaction (iv) and 5 μl of 10 mg/ml inhibitor solution was added to a no-trypsin control reaction. The differential pulse voltammogram results are shown in FIG. 16 with baseline correction.

The target in data set [7] is T5, type I-S soybean trypsin inhibitor, P01070.
T5 chain: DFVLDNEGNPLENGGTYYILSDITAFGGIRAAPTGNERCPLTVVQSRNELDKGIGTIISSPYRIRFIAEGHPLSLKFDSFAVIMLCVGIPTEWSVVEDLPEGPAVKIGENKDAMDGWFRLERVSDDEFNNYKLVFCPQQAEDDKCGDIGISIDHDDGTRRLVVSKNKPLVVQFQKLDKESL

Setting [8] is: positive reaction, 37° C. for 1 hour.
Where [9] appears, read: positive reaction, 2 μl enzyme (10 mgml^−1), 37° C. for 1 hour.
Setting [10] is: no-trypsin control reaction with 5 μl of 10 mg/ml inhibitor solution.
The mark [11] stands for this setting: reaction (ii): 0.5 μl of 1 mg/ml inhibitor solution.
[12] abbreviates: reaction (iii): 0.51 of 10 mg/ml inhibitor.
Setting [13] is: reaction (iv): 5 μl of 10 mg/ml inhibitor solution.

For “unlabelled BSA: Bovine serum albumin (lyophilised powder, approx. 99%) from Sigma, unlabelled control substrate [reference compound]”, in data set [1] (unlabelled substrate, trypsin reaction and no-trypsin control), the “peaks in differential pulse voltammogram” value is given as “No peaks were found”.
In the case of “type I-S soybean trypsin inhibitor (from UniProt P01070 25-205)”, in data set [2], the peak height, differential pulse voltammogram of trypsin digestion of Fc-BSA; reaction (ii), 0.5 ul of 1 mg/ml inhibitor solution in the 200 ul reaction (no-inhibitor reaction (i): 2.56x10^-7 A) worked out at 2.12e-07 A.
As to “FcU-BSA: Bovine serum albumin labelled with 4-(3′-ferrocenylureido)-1-benzoyl groups”, in data set [3] (no-papain control reaction), the peak result is reported as “no peak was found”. The peak height in data set [3] (setting [8]) is 2.62×10^−7 A; in data set [1] (no-trypsin control reaction) it was “no peak”; in data set [1] (setting [9]), 5.01×10^−7 A. The peak position in data set [3] (setting [8]) came to 93 mV; in data set [1] (setting [9]), 97 mV. Also, the “faradaic current response over time after addition of the enzyme” value is given as “analogous” in data set [4] and “increase in current” in data set [5].

B1: soybean trypsin inhibitor: type I-S soybean trypsin inhibitor obtained from Sigma (protein)
chain: DFVLDNEGNPLENGGTYYILSDITAFGGIRAAPTGNERCPLTVVQSRNELDKGIGTIISSPYRIRFIAEGHPLSLKFDSFAVIMLCVGIPTEWSVVEDLPEGPAVKIGENKDAMDGWFRLERVSDDEFNNYKLVFCPQQAEDDKCGDIGISIDHDDGTRRLVVSKNKPLVVQFQKLDKESL
With B1, the peak height is recorded as 2.75×10^−8 A in data set [6] (setting [10]), 2.12×10^−7 A in data set [6] (setting [11]), 1.60×10^−7 A in data set [6] (setting [12]) and 5.33×10^−8 A in data set [6] (setting [13]). For the same molecule, the peak position in data set [6] (setting [10]) is recorded as 429 mV; in data set [6] (setting [11]), 435 mV; in data set [6] (setting [12]), 430 mV; in data set [6] (setting [13]), 426 mV.

B2: porcine pancreas trypsin (1120 BAEE units/mg solid) (protein)
chain: IVGGYTCAANSIPYQVSLNSGSHFCGGSLINSQWVVSAAHCYKSRIQVRLGEHNIDVLEGNEQFINAAKIITHPNFNGNTLDNDIMLIKLSSPATLNSRVATVSLPRSCAAAGTECLISGWGNTKSSGSSYPSLLQCLKAPVLSDSSCKSSYPGQITGNMICVGFLEGGKDSCQGDSGGPVVCNGQLQGIVSWGYGCAQKNKPGVYTKVCNYVNWIQQTIAAN
As to B2, the “magnitude of signal in the differential pulse voltammogram of trypsin digestion of Fc-BSA” value in data set [7] is recorded as “the magnitude of signal in the differential pulse voltammogram is strongly dependent on the concentration of inhibitor present in the digestion experiment”.
